Series [1] deals with HeLa Kyoto. The experiment in a line: solubility in G1/S (NP-40 vs SDS abundance) (log2 ratio); higher = more soluble. The conditions noted are these: cell cycle stage: G1/S.
Series [2] relates to HeLa Kyoto. The experiment in a line: melting temperature (median over replicates), in situ; higher = more thermally stable.
For series [3], the system named is HeLa Kyoto. Nature of the series: solubility change mitosis vs G1/S (difference of NP-40 vs SDS log2 ratios) (log2 ratio difference); higher = more soluble in mitosis.
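For melting temperature (median over replicates), in situ in this document: HeLa Kyoto cells synchronized by double thymidine or nocodazole block, proteins quantified by TMT10plex mass spectrometry, three independent biological replicates.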
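For solubility change mitosis vs G1/S (difference of NP-40 vs SDS log2 ratios) in this document: synchronized HeLa Kyoto cells (double thymidine block for G1/S, nocodazole release for mitosis), protein amounts in NP-40 versus SDS lysates quantified by mass spectrometry, three biological replicates.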
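For solubility in G1/S (NP-40 vs SDS abundance) in this document: HeLa Kyoto cells arrested at G1/S by double thymidine block, proteins quantified by TMT10plex mass spectrometry in mild NP-40 versus SDS extracts, three biological replicates.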

As for “MASQNRDPAATSVAAARKGAEPSGGAARGPVGKRLQQELMTLMMSGDKGISAFPESDNLFKWVGTIHGAAGTVYEDLRYKLSLEFPSGYPYNAPTVKFLTPCYHPNVDTQGNICLDILKEKWSALYDVRTILLSIQSLLGEPNIDSPLNTHAAELWKNPTAFKKYLQETYSKQVTSQEP [UBE2C]”, the “solubility in G1/S (log2)” value in the series on HeLa Kyoto [1] was -0.443. For the same sequence, in the series with HeLa Kyoto [2] (cell cycle stage: mitosis), the melting temperature stood at 49.9 °C. Also, the “solubility change mitosis (log2)” value in the series on HeLa Kyoto [3] worked out at 0.955.
For “MASRRKSTTPCMVLASEQDPDLELISDLDEGPPVLTPVENTRAESISSDEEVHESVDSDNQQNKKVEGGYECKYCTFQTPDLNMFTFHVDSEHPNVVLNSSYVCVECNFLTKRYDALSEHNLKYHPGEENFKLTMVKRNNQTIFEQTINDLTFDGSFVKEENAEQAESTEVSSSGISISKTPIMKMMKNKVENKRIAVHHNSVEDVPEEKENEIKPDREEIVENPSSSASESNTSTSIVNRIHPSTASTVVTPAAVLPGLAQVITAVSAQQNSNLIPKVLIPVNSIPTYNAALDNNPLLLNTYNKFPYPTMSEITVLSAQAKYTEEQIKIWFSAQRLKHGVSWTPEEVEEARRKQFNGTVHTVPQTITVIPTHISTGSNGLPSILQTCQIVGQPGLVLTQVAGTNTLPVTAPIALTVAGVPSQNNIQKSQVPAAQPTAETKPATAAVPTSQSVKHETALVNPDSFGIRAKKTKEQLAELKVSYLKNQFPHDSEIIRLMKITGLTKGEIKKWFSDTRYNQRNSKSNQCLHLNNDSSTTIIIDSSDETTESPTVGTAQPKQSWNPFPDFTPQKFKEKTAEQLRVLQASFLNSSVLTDEELNRLRAQTKLTRREIDAWFTEKKKSKALKEEKMEIDESNAGSSKEEAGETSPADESGAPKSGSTGKICKKTPEQLHMLKSAFVRTQWPSPEEYDKLAKESGLARTDIVSWFGDTRYAWKNGNLKWYYYYQSANSSSMNGLSSLRKRGRGRPKGRGRGRPRGRPRGSKRINNWDRGPSLIKFKTGTAILKDYYLKHKFLNEQDLDELVNKSHMGYEQVREWFAERQRRSELGIELFEENEEEDEVIDDQEEDEEETDDSDTWEPPRHVKRKLSKSDD [ZHX1]”, in the series with HeLa Kyoto [1], the “solubility in G1/S (log2)” value turned out to be 0.0738. For the same sequence, the melting temperature was 48.3 °C in the series on HeLa Kyoto [2] (cell cycle stage: G1/S) and 48.9 °C in the series with HeLa Kyoto [2] (cell cycle stage: mitosis). For the same sequence, the “solubility change mitosis (log2)” value with HeLa Kyoto [3] was -0.162.
As for “MASYYEILDVPRSASADDIKKAYRRKALQWHPDKNPDNKEFAEKKFKEVAEAYEVLSDKHKREIYDRYGREGLTGTGTGPSRAEAGSGGPGFTFTFRSPEEVFREFFGSGDPFAELFDDLGPFSELQNRGSRHSGPFFTFSSSFPGHSDFSSSSFSFSPGAGAFRSVSTSTTFVQGRRITTRRIMENGQERVEVEEDGQLKSVTINGVPDDLALGLELSRREQQPSVTSRSGGTQVQQTPASCPLDSDLSEDEDLQLAMAYSLSEMEAAGKKPAGGREAQHRRQGRPKAQHQDPGLGGTQEGARGEATKRSPSPEEKASRCLIL [DNAJB2]”, the “solubility in G1/S (log2)” value in the series on HeLa Kyoto [1] stood at 0.0895. For the same sequence, the melting temperature stood at 50.2 °C in the series on HeLa Kyoto [2] (cell cycle stage: G1/S) and 50.5 °C in the series with HeLa Kyoto [2] (cell cycle stage: mitosis). In the series on HeLa Kyoto [3], the “solubility change mitosis (log2)” value turned out to be 0.274.
The like results for “MATQAHSLSYAGCNFLRQRLVLSTLSGRPVKIRKIRARDDNPGLRDFEASFIRLLDKITNGSRIEINQTGTTLYYQPGLLYGGSVEHDCSVLRGIGYYLESLLCLAPFMKHPLKIVLRGVTNDQVDPSVDVLKATALPLLKQFGIDGESFELKIVRRGMPPGGGGEVVFSCPVRKVLKPIQLTDPGKIKRIRGMAYSVRVSPQMANRIVDSARSILNKFIPDIYIYTDHMKGVNSGKSPGFGLSLVAETTSGTFLSAELASNPQGQGAAVLPEDLGRNCARLLLEEIYRGGCVDSTNQSLALLLMTLGQQDVSKVLLGPLSPYTIEFLRHLKSFFQIMFKIETKPCGEELKGGDKVLMTCVGIGFSNLSKTLK [RCL1]” were, in that order, -1.92, 52.4 °C, 52.3 °C and 0.888.
The like results for “MAVAIAAARVWRLNRGLSQAALLLLRQPGARGLARSHPPRQQQQFSSLDDKPQFPGASAEFIDKLEFIQPNVISGIPIYRVMDRQGQIINPSEDPHLPKEKVLKLYKSMTLLNTMDRILYESQRQGRISFYMTNYGEEGTHVGSAAALDNTDLVFGQYREAGVLMYRDYPLELFMAQCYGNISDLGKGRQMPVHYGCKERHFVTISSPLATQIPQAVGAAYAAKRANANRVVICYFGEGAASEGDAHAGFNFAATLECPIIFFCRNNGYAISTPTSEQYRGDGIAARGPGYGIMSIRVDGNDVFAVYNATKEARRRAVAENQPFLIEAMTYRIGHHSTSDDSSAYRSVDEVNYWDKQDHPISRLRHYLLSQGWWDEEQEKAWRKQSRRKVMEAFEQAERKPKPNPNLLFSDVYQEMPAQLRKQQESLARHLQTYGEHYPLDHFDK [BCKDHA]” were, in that order, 0.0962, 52.2 °C, 52.2 °C and -0.0598.
